Results on one molecule are retold here after US8581042B2, “Polypeptides having beta-glucosidase activity and polynucleotides encoding same” (Novozymes A/S, priority 2010, dated 2013).

The nature of data set [1]: PCS hydrolysis assay (1-gram ground-sieved, unwashed PCS), cellulose conversion. The data set is classed as biochemical. Particulars: supplemented; 50 and 55° C., pH 5.0. Here is the method: Corn stover was pretreated at the U.S. Department of Energy National Renewable Energy Laboratory (NREL) using dilute sulfuric acid. The conditions used for the pretreatment were 0.048 g sulfuric acid/g dry biomass at 190° C. and 25% w/w dry solids for around 1 minute. The water-insoluble solids in the pretreated corn stover (PCS) contained 52% cellulose, 3.6% hemicellulose and 29.8% lignin. Cellulose and hemicellulose were determined by a two-stage sulfuric acid hydrolysis with subsequent analysis of sugars by high performance liquid chromatography using NREL Standard Analytical Procedure #002. Lignin was determined gravimetrically after hydrolyzing the cellulose and hemicellulose fractions with sulfuric acid using NREL Standard Analytical Procedure #003. […] The protein concentration was determined using a BCA Reagent Kit (Pierce, Rockford, Ill., USA).
Penicillium oxalicum GH3 beta-glucosidase (1.5 mg/g cellulose) was added to CELLUCLAST® 1.5L (15 mg/g cellulose) for a total loading of 16.5 mg protein/g cellulose. […] After 72 hour incubation at 50 and 55° C., samples were mixed well, centrifuged at 3000 rpm for 5 minutes, and supernatants were filtered using a 0.45 μm MULTISCREEN® 96-well filter plate (Millipore, Bedford, Mass., USA) and filtrates analyzed for sugar content as described below. […]

Data set [2] is described as follows: Specific activity on pNPG. The data set is classed as biochemical. The conditions noted are these: 40° C., pH 5, 20 minutes. The procedure:
(§1) Specific activity. 4-Nitrophenyl-beta-D-glucopyranoside (pNPG) was dissolved in DMSO to produce a 100 mM stock solution. Right before assay, the 100 mM pNPG stock solution was diluted 100-fold in 50 mM sodium acetate pH 5 with 0.01% TWEEN® 20 to 1 mM pNPG. Enzyme was diluted to a wide range of concentrations in the same buffer. To 20 μl of the enzyme dilutions (a range of concentration), 100 μl of the 1 mM pNPG solution were quickly added. The reaction was incubated at 40° C. for 20 minutes before the reaction was stopped with 50 μl of 1 M sodium carbonate pH 10, and the absorbance at 405 nm was measured for 4-nitrophenolate production. The specific activity of the Penicillium oxalicum GH3 beta-glucosidase on pNPG was determined to be 72.3±1.7 IU/mg, where […] produce 1 μmole of glucose per minute at 40° C., pH 5.

Data set [3] in a line: Thermostability: residual activity on pNPG after incubation. The data set is classed as physicochemical. Particulars: 1 g/L, pH 5. The procedure:
as §1
Thermostability. The Penicillium oxalicum GH3 beta-glucosidase was diluted in 50 mM sodium acetate pH 5 with 0.01% TWEEN® 20 to 1 g/L, and then incubated at 50° C. for 3 days, and 60° C. for 3 hours or 24 hours. The same sample was stored at 4° C. to serve as control. After incubation, the residual activity of the samples was measured using pNPG as substrate, following the same assay protocol described above, but using one enzyme loading which yielded less than 5% conversion. The activity of the sample in 4° C. was normalized to 100%, and the activities of samples at other incubation conditions were compared to the 4° C. activity. The thermostability of the Penicillium oxalicum GH3 beta-glucosidase is shown below.

Data set [4] is described as follows: pH activity profile on pNPG. The class given is biochemical. Particulars: Britton Robinson buffer, 50° C. The procedure: as §1
pH profile. The pH activity profile of the Penicillium oxalicum GH3 beta-glucosidase was determined using the same protocol described above, except the beta-glucosidase was incubated at four different pHs (4, 5, 6, and 7) and one enzyme loading was used, which yielded less than 5% conversion. Britton Robinson buffer (100 mM) was used as the buffer system. The 100 mM Britton Robinson buffer was titrated to a various pH values in the range of 4-7 using 5 M sodium hydroxide and then diluted to 40 mM with deionized water. The pNP-glucose was prepared in the same buffer, and the activity was measured at 50° C. The highest activity was normalized to 100%, and activities at the other pH values were compared to the highest activity and expressed in % activity. The pH profile of the Penicillium oxalicum GH3 beta-glucosidase is shown below.

B1: Penicillium oxalicum GH3 beta-glucosidase: Family GH3 beta-glucosidase of Penicillium oxalicum strain IBT5387 (SEQ ID NO: 2), expressed in Aspergillus oryzae and purified (protein, listed as Penicillium oxalicum)
chain: MRSSTTVLAFVSYGSFGIAAAKPIQEHKPELLNSFHGFQIEEPYSPPFYPSPWMNPRAEGWEDAYQKALAFVSQLTLLEKVNLTTGVGWENGPCVGNTGSVPRLGFKGLCLQDSPQGVRFADYASAFTSSQMAAATFDKTVLYERGVAMAQEHKGKGITVQLGPVAGPLGRAPEGGRNWEGFSPDPVLNGIAMAETIKGMQDTGVLACAKHYVGNEQEHFRQAGESAGHGYNIAESISSNIDDRTMHEMYLWPFADAVRAGVASFMCSYNQINNSYGCQNSHTLNKLLKSELGFQGFVMSDWQAQHSGVSSALAGLDMTMPGDTEFDTGLSFWGSNLTIAVLNGTVPEWRIDDMAMRIMAAYFKVGLTIEDQPDVNFNSWTYDTYGYKYFYSKEGYEKVNWHVDVRANHAQQIRETAAKGTVLLKNTNGALPLKRPSFVAVVGEDAGPNPKGPNGCPDRGCDEGTLAMGWGSGSTQFPFLVTPDSAIQAKVLEYGGRYESILDNYDESAISALVSQPDATCIVFGNSDSGEAFITVDGNWGDRNNLTLWQNADAVIRNVSALCSNTIVVLHTVGPVLLTDYYEHPNITAIVWAGLPGEESGNALVDILWGDVNPAGRTPFTWAKSREDYGTDVMYVPNNGEQAPQQSFSEGIFLDYRHFDQAGIDPIYEFGHGLSYTNFSYSDLRIVTKHVRPYRPTTGMTTQAPIIGPLPSPNLTEYQFPATFKYIPAFIYPYLNSTESLRAASKDPHYGSTAFIPPHALDSSPQPLNPAGDPIASGGNSMLYQELYEITAKITNTGNLAGDEVVQLYVNLGGDNPPRQLRGFDRIHLLPGQSKVFRATLTRRDLSNWDVAAQNWRIIRSAKEVYVGRSSRDLPLSARLESW
In the case of B1, the “effect on CELLUCLAST 1.5L in PCS hydrolysis” value in data set [1] is recorded as “synergistic effect”. For the same molecule, the “specific activity on pNPG” value in data set [2] was found to be 72.3±1.7 IU/mg. The “Residual activity on pNPG” value in data set [3] (incubation 4° C. (control, normalized to 100%)) is 100%; in data set [3] (incubation 50° C., 72 hours) it was 100%; in data set [3] (incubation 60° C., 3 hours), 100%; in data set [3] (incubation 60° C., 24 hours) it was 100%; in data set [3] (incubation 70° C., 24 hours), 76%. For the same molecule, the “Activity (relative to highest activity)” value in data set [4] (pH 4.0) was determined as 38%; in data set [4] (pH 5.0) it was 99%; in data set [4] (pH 6.0), 100%; in data set [4] (pH 7.0), 36%.
